Assay results published in patent publication US20160244497A1 (Amgen, published 2016).
Read-outs that look alike come from different tables or passages of the source.

Experiments:
Experiment in all cases: cell-based or functional assay
[1] = molecular target: beta-klotho
[2] = molecular target: beta-klotho; remark: listed apart in the source
[3] = molecular target: beta-klotho; remark: listed apart in the source
[4] = molecular target: beta-klotho; remark: listed apart in the source

B1: Tethered Molecule of two FGF21 P171C polypeptides (20 kDa PEG linker) (ligand)
chain: MHPIPDSSPLLQFGGQVRQRYLYTDDAQQTEAHLEIREDGTVGGAADQSPESLLQLKALKPGVIQILGVKTSRFLCQRPDGALYGSLHFDPEACSFRELLLEDGYNVYQSEAHGLPLHLPGNKSPHRDPAPRGPARFLPLPGLPPAPPEPPGILAPQPPDVGSSDPLSMVGCSQGRSPSYAS
modifications: Cys 171 of the two chains joined by one 20 kDa PEG bis-maleimide
- EC50, ELK-luciferase assay [1]: 0.21 nM

B2: Tethered Molecule of two FGF21 G170C polypeptides (20 kDa PEG linker) (ligand)
chain: MHPIPDSSPLLQFGGQVRQRYLYTDDAQQTEAHLEIREDGTVGGAADQSPESLLQLKALKPGVIQILGVKTSRFLCQRPDGALYGSLHFDPEACSFRELLLEDGYNVYQSEAHGLPLHLPGNKSPHRDPAPRGPARFLPLPGLPPAPPEPPGILAPQPPDVGSSDPLSMVCPSQGRSPSYAS
modifications: Cys 170 of the two chains joined by one 20 kDa PEG bis-maleimide
- EC50, ELK-luciferase assay [1]: 0.47 nM

B3: FGF21 mutant R77C, P171G, PEGylated at the N-terminus and Cys 77 (2 x 20k) (ligand)
chain: MHPIPDSSPLLQFGGQVRQRYLYTDDAQQTEAHLEIREDGTVGGAADQSPESLLQLKALKPGVIQILGVKTSRFLCQCPDGALYGSLHFDPEACSFRELLLEDGYNVYQSEAHGLPLHLPGNKSPHRDPAPRGPARFLPLPGLPPAPPEPPGILAPQPPDVGSSDPLSMVGGSQGRSPSYAS
modifications: 20 kDa PEG on the N-terminus; 20 kDa PEG on Cys 77
- EC50, ELK-luciferase assay [2]: 64 nM

B4: FGF21(K56R/K59R/K122R), 2 x 20k PEG (ligand)
chain: MHPIPDSSPLLQFGGQVRQRYLYTDDAQQTEAHLEIREDGTVGGAADQSPESLLQLRALRPGVIQILGVKTSRFLCQRPDGALYGSLHFDPEACSFRELLLEDGYNVYQSEAHGLPLHLPGNRSPHRDPAPRGPARFLPLPGLPPAPPEPPGILAPQPPDVGSSDPLSMVGPSQGRSPSYAS
modifications: two 20k PEG (amine-specific): N-terminus and the one remaining lysine (Lys 69)
- In Vitro Activity EC50, ELK-luciferase assay [3]: 531 nM

B5: dually PEGylated FGF21 mutant E37C, H125C, P171G (ligand)
chain: MHPIPDSSPLLQFGGQVRQRYLYTDDAQQTEAHLEIRCDGTVGGAADQSPESLLQLKALKPGVIQILGVKTSRFLCQRPDGALYGSLHFDPEACSFRELLLEDGYNVYQSEAHGLPLHLPGNKSPCRDPAPRGPARFLPLPGLPPAPPEPPGILAPQPPDVGSSDPLSMVGGSQGRSPSYAS
modifications: 20 kDa methoxy-PEG-maleimide on Cys 37 and on Cys 125
- EC50, ELK-luciferase assay [4]: 37 nM

B6: FGF21(all K to all R, R175K), 2 x 20k PEG (ligand)
chain: MHPIPDSSPLLQFGGQVRQRYLYTDDAQQTEAHLEIREDGTVGGAADQSPESLLQLRALRPGVIQILGVRTSRFLCQRPDGALYGSLHFDPEACSFRELLLEDGYNVYQSEAHGLPLHLPGNRSPHRDPAPRGPARFLPLPGLPPAPPEPPGILAPQPPDVGSSDPLSMVGPSQGKSPSYAS
modifications: two 20k PEG (amine-specific): N-terminus and Lys 175
- In Vitro Activity EC50, ELK-luciferase assay [3]: > 1000 nM

B7: dually PEGylated FGF21 mutant R77C, G120C, P171G (ligand)
chain: MHPIPDSSPLLQFGGQVRQRYLYTDDAQQTEAHLEIREDGTVGGAADQSPESLLQLKALKPGVIQILGVKTSRFLCQCPDGALYGSLHFDPEACSFRELLLEDGYNVYQSEAHGLPLHLPCNKSPHRDPAPRGPARFLPLPGLPPAPPEPPGILAPQPPDVGSSDPLSMVGGSQGRSPSYAS
modifications: 20 kDa methoxy-PEG-maleimide on Cys 77 and on Cys 120
- EC50, ELK-luciferase assay [4]: 35 nM

B8: dually PEGylated FGF21 mutant E91C, G120C, P171G (ligand)
chain: MHPIPDSSPLLQFGGQVRQRYLYTDDAQQTEAHLEIREDGTVGGAADQSPESLLQLKALKPGVIQILGVKTSRFLCQRPDGALYGSLHFDPCACSFRELLLEDGYNVYQSEAHGLPLHLPCNKSPHRDPAPRGPARFLPLPGLPPAPPEPPGILAPQPPDVGSSDPLSMVGGSQGRSPSYAS
modifications: 20 kDa methoxy-PEG-maleimide on Cys 91 and on Cys 120
- EC50, ELK-luciferase assay [4]: 34 nM

B9: FGF21 mutant H125C, P171G, PEGylated at the N-terminus (5k) and Cys 125 (20k) (ligand)
chain: MHPIPDSSPLLQFGGQVRQRYLYTDDAQQTEAHLEIREDGTVGGAADQSPESLLQLKALKPGVIQILGVKTSRFLCQRPDGALYGSLHFDPEACSFRELLLEDGYNVYQSEAHGLPLHLPGNKSPCRDPAPRGPARFLPLPGLPPAPPEPPGILAPQPPDVGSSDPLSMVGGSQGRSPSYAS
modifications: 5 kDa PEG on the N-terminus; 20 kDa PEG on Cys 125
- EC50, ELK-luciferase assay [2]: 30 nM

B10: dually PEGylated FGF21 mutant E37C, G120C, P171G (ligand)
chain: MHPIPDSSPLLQFGGQVRQRYLYTDDAQQTEAHLEIRCDGTVGGAADQSPESLLQLKALKPGVIQILGVKTSRFLCQRPDGALYGSLHFDPEACSFRELLLEDGYNVYQSEAHGLPLHLPCNKSPHRDPAPRGPARFLPLPGLPPAPPEPPGILAPQPPDVGSSDPLSMVGGSQGRSPSYAS
modifications: 20 kDa methoxy-PEG-maleimide on Cys 37 and on Cys 120
- EC50, ELK-luciferase assay [4]: 35 nM

B11: Tethered Molecule of two FGF21 R175C, P171G polypeptides (20 kDa PEG linker) (ligand)
chain: MHPIPDSSPLLQFGGQVRQRYLYTDDAQQTEAHLEIREDGTVGGAADQSPESLLQLKALKPGVIQILGVKTSRFLCQRPDGALYGSLHFDPEACSFRELLLEDGYNVYQSEAHGLPLHLPGNKSPHRDPAPRGPARFLPLPGLPPAPPEPPGILAPQPPDVGSSDPLSMVGGSQGCSPSYAS
modifications: Cys 175 of the two chains joined by one 20 kDa PEG bis-maleimide
- EC50, ELK-luciferase assay [1]: 0.36 nM

B12: FGF21 mutant H125C, P171G, PEGylated at the N-terminus and Cys 125 (2 x 20k) (ligand)
chain: MHPIPDSSPLLQFGGQVRQRYLYTDDAQQTEAHLEIREDGTVGGAADQSPESLLQLKALKPGVIQILGVKTSRFLCQRPDGALYGSLHFDPEACSFRELLLEDGYNVYQSEAHGLPLHLPGNKSPCRDPAPRGPARFLPLPGLPPAPPEPPGILAPQPPDVGSSDPLSMVGGSQGRSPSYAS
modifications: 20 kDa PEG on the N-terminus; 20 kDa PEG on Cys 125
- EC50, ELK-luciferase assay [2]: 152 nM
